# Test results published in patent US20110014656A1.
# B1: human IL-17F, Q96PD4 31-163 (ligand)
# chain: RKIPKVGHTFFQKPESCPPVPGGSMKLDIGIINENQRVSMSRNIESRSTSPWNYTVTWDPNRYPSEVVQAQCRNLGCINAQGKEDISMNSVPIQQETLVVRRKHQGCSVSFQLEKVLVTVGCTCVTPVIHHVQ
# Experiments:
# [1] = target: T1, human IL-17 receptor (IL-17RA) on transfected cells (human), Q96F46; test: saturation binding, iodinated cytokine on transfected BHK cells; saturation binding, iodinated hIL-17F on hIL-17RA BHK cells; conditions: remark: other sources report otherwise
# T1 sequence (Q96F46 33-320 limits assumed): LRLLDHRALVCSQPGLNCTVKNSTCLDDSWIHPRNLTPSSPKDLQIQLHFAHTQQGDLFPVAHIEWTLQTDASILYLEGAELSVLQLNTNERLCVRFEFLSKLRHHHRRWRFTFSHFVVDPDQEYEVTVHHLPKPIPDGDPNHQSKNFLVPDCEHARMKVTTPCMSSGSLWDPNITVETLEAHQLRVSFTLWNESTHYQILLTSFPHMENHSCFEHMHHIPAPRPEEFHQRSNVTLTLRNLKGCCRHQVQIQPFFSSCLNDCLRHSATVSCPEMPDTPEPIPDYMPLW
# [2] = target: T1, human IL-17 receptor (IL-17RA) on …; test: saturation binding, iodinated cytokine on transfected BHK cells; saturation binding; fold comparison with the other Kd values of Table 1; conditions: remark: other sources report otherwise
binder,measurement,setting,value
B1,Kd,[1],1500 nM
same,fold lower affinity relative to the other affinities measured,[2],1000 fold
